In patent publication US20220010021A1 (Sanofi, published 2022):
One block for each binder: values may come before it.

Columns and labels:
[1] = molecular target: T1, beta-Klotho (KLB) (Homo sapiens (Human), UniProt Q86Z14 1-996); test: BLI (Octet) off-rate screening, mAb from supernatant on anti-hIgG Fc sensor, 5 nmol/L KLB;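 note: dissociation followed for 1800 s in D-PBS plus 0.1% BSA, antibody supernatants applied at 25 µg/mL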
T1 construct: also called β-Klotho; not shown: C-terminal His tag of the bought R&D Systems protein
T1 sequence: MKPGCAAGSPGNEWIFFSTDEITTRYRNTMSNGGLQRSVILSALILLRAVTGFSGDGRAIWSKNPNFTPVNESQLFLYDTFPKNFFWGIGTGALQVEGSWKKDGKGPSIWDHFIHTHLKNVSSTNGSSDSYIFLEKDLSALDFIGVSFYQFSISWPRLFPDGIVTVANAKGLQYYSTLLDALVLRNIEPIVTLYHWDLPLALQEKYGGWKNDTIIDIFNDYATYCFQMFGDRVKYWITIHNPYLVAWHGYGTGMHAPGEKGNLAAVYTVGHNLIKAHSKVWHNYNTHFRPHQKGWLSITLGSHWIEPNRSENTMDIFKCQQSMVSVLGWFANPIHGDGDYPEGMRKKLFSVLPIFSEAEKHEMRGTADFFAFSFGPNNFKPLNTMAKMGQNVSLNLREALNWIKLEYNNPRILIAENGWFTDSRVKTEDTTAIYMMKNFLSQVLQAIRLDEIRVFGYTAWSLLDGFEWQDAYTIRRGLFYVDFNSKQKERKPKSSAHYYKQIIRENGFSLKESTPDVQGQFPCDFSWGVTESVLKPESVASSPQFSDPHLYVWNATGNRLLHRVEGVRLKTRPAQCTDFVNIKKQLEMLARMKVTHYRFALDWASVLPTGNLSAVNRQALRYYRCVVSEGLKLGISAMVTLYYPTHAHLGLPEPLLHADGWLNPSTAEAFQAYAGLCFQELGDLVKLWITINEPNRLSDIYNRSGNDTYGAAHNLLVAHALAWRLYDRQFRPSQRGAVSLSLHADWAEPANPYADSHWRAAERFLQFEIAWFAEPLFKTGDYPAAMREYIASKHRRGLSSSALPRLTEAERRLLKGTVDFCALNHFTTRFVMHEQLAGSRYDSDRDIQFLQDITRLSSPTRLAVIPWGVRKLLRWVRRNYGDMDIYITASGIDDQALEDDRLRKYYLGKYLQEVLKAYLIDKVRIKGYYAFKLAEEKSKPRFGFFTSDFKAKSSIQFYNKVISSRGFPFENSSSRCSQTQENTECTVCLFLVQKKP

[2] = molecular target: cell surface receptor composed of the tyrosine kinase receptor FGFR1c and co-receptor beta-Klotho (KLB) (human, UniProt P11362 22-822; Q86Z14 1-1044); test: cell-based or functional assay
Sequence of cell surface receptor composed of the tyrosine kinase receptor FGFR1c and co-receptor beta-Klotho (KLB) (P11362 22-822, one chain of several): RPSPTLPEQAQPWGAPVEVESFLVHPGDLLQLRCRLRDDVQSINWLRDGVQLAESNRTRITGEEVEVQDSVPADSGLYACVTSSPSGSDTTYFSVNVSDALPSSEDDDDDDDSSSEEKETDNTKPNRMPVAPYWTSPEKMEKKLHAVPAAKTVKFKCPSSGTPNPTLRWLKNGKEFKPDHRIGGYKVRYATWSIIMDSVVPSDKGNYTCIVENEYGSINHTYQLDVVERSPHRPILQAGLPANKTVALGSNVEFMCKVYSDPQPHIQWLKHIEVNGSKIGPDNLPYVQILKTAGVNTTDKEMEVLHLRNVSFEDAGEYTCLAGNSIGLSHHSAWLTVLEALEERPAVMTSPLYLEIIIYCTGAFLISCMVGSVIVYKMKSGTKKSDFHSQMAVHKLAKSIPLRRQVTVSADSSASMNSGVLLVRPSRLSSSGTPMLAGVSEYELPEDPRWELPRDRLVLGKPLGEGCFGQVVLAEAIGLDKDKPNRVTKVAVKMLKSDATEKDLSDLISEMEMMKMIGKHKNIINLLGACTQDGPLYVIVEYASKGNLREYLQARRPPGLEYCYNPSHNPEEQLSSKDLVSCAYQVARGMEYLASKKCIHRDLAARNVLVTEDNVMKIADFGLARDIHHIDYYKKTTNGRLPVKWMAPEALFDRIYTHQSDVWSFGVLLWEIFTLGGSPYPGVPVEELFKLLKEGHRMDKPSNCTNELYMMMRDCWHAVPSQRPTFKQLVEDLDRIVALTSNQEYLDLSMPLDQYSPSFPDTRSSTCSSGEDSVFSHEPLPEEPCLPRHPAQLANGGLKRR

B1: 16H7 variant with light chain substitution S94G (antibody, human IgG4 S228P, lambda, V domains shown)
VH: not shown
VL: SYVLTQPPSVSVAPGQTARITCGGNNIGSESVHWYQQKPGQAPVLVVYDDSDRPSGIPERFSGSNSGNTATLTISRVEAGDEADYYCQVWDGNGDHVVFGGGTKLTVLG
notes: IgG4 backbone was used
koff [1]: 6.8e-05 s⁻¹ | Mean E max, Luciferase gene reporter assay [2]: 100% | Mean EC50, Luciferase gene reporter assay [2]: 0.146 nM

B3: 16H7 variant with light chain substitution D95Y (antibody, human IgG4 S228P, lambda, V domains shown)
VH: not shown
VL: SYVLTQPPSVSVAPGQTARITCGGNNIGSESVHWYQQKPGQAPVLVVYDDSDRPSGIPERFSGSNSGNTATLTISRVEAGDEADYYCQVWDGNSYHVVFGGGTKLTVLG
notes: IgG4 backbone was used
koff [1]: 0.00013 s⁻¹ | Mean E max, Luciferase gene reporter assay [2]: 4%

B4: 16H7 variant with light chain substitution H96G (antibody, human IgG4 S228P, lambda, V domains shown)
VH: not shown
VL: SYVLTQPPSVSVAPGQTARITCGGNNIGSESVHWYQQKPGQAPVLVVYDDSDRPSGIPERFSGSNSGNTATLTISRVEAGDEADYYCQVWDGNSDGVVFGGGTKLTVLG
notes: IgG4 backbone was used
koff [1]: 0.00015 s⁻¹ | Mean E max, Luciferase gene reporter assay [2]: 95% | Mean EC50, Luciferase gene reporter assay [2]: 0.13 nM

B5: 16H7 variant with light chain substitution H96E (antibody, human IgG4 S228P, lambda, V domains shown)
VH: not shown
VL: SYVLTQPPSVSVAPGQTARITCGGNNIGSESVHWYQQKPGQAPVLVVYDDSDRPSGIPERFSGSNSGNTATLTISRVEAGDEADYYCQVWDGNSDEVVFGGGTKLTVLG
notes: IgG4 backbone was used
koff [1]: 1.1e-05 s⁻¹ | Mean E max, Luciferase gene reporter assay [2]: 100% | Mean EC50, Luciferase gene reporter assay [2]: 0.122 nM

B7: 16H7 variant with light chain substitution D95M (antibody, human IgG4 S228P, lambda, V domains shown)
VH: not shown
VL: SYVLTQPPSVSVAPGQTARITCGGNNIGSESVHWYQQKPGQAPVLVVYDDSDRPSGIPERFSGSNSGNTATLTISRVEAGDEADYYCQVWDGNSMHVVFGGGTKLTVLG
notes: IgG4 backbone was used
koff [1]: 1.4e-05 s⁻¹ | Mean E max, Luciferase gene reporter assay [2]: 8%

B11: 16H7 variant with light chain substitution H96L (antibody, human IgG4 S228P, lambda, V domains shown)
VH: not shown
VL: SYVLTQPPSVSVAPGQTARITCGGNNIGSESVHWYQQKPGQAPVLVVYDDSDRPSGIPERFSGSNSGNTATLTISRVEAGDEADYYCQVWDGNSDLVVFGGGTKLTVLG
notes: IgG4 backbone was used
koff [1]: 0.00013 s⁻¹ | Mean E max, Luciferase gene reporter assay [2]: 98% | Mean EC50, Luciferase gene reporter assay [2]: 0.176 nM

B12: 16H7 variant with light chain substitution D95H (antibody, human IgG4 S228P, lambda, V domains shown)
VH: not shown
VL: SYVLTQPPSVSVAPGQTARITCGGNNIGSESVHWYQQKPGQAPVLVVYDDSDRPSGIPERFSGSNSGNTATLTISRVEAGDEADYYCQVWDGNSHHVVFGGGTKLTVLG
notes: IgG4 backbone was used
koff [1]: 8.1e-06 s⁻¹ | Mean E max, Luciferase gene reporter assay [2]: 33% | Mean EC50, Luciferase gene reporter assay [2]: 29.7 nM

B14: 16H7 variant with light chain substitution H96D (antibody, human IgG4 S228P, lambda, V domains shown)
VH: not shown
VL: SYVLTQPPSVSVAPGQTARITCGGNNIGSESVHWYQQKPGQAPVLVVYDDSDRPSGIPERFSGSNSGNTATLTISRVEAGDEADYYCQVWDGNSDDVVFGGGTKLTVLG
notes: IgG4 backbone was used
koff [1]: 2.2e-05 s⁻¹ | Mean E max, Luciferase gene reporter assay [2]: 100% | Mean EC50, Luciferase gene reporter assay [2]: 0.111 nM

B15: 16H7 variant with light chain substitution H96K (antibody, human IgG4 S228P, lambda, V domains shown)
VH: not shown
VL: SYVLTQPPSVSVAPGQTARITCGGNNIGSESVHWYQQKPGQAPVLVVYDDSDRPSGIPERFSGSNSGNTATLTISRVEAGDEADYYCQVWDGNSDKVVFGGGTKLTVLG
notes: IgG4 backbone was used
koff [1]: 6.4e-05 s⁻¹ | Mean E max, Luciferase gene reporter assay [2]: 98% | Mean EC50, Luciferase gene reporter assay [2]: 0.179 nM

B17: 16H7 variant with light chain substitution D95A (antibody, human IgG4 S228P, lambda, V domains shown)
VH: not shown
VL: SYVLTQPPSVSVAPGQTARITCGGNNIGSESVHWYQQKPGQAPVLVVYDDSDRPSGIPERFSGSNSGNTATLTISRVEAGDEADYYCQVWDGNSAHVVFGGGTKLTVLG
notes: IgG4 backbone was used
koff [1]: 0.0002 s⁻¹ | Mean E max, Luciferase gene reporter assay [2]: 12%

B23: 16H7 variant with light chain substitution H96N (antibody, human IgG4 S228P, lambda, V domains shown)
VH: not shown
VL: SYVLTQPPSVSVAPGQTARITCGGNNIGSESVHWYQQKPGQAPVLVVYDDSDRPSGIPERFSGSNSGNTATLTISRVEAGDEADYYCQVWDGNSDNVVFGGGTKLTVLG
notes: IgG4 backbone was used
koff [1]: 4.4e-05 s⁻¹ | Mean E max, Luciferase gene reporter assay [2]: 112% | Mean EC50, Luciferase gene reporter assay [2]: 0.143 nM

B24: 16H7 variant with light chain substitution D95I (antibody, human IgG4 S228P, lambda, V domains shown)
VH: not shown
VL: SYVLTQPPSVSVAPGQTARITCGGNNIGSESVHWYQQKPGQAPVLVVYDDSDRPSGIPERFSGSNSGNTATLTISRVEAGDEADYYCQVWDGNSIHVVFGGGTKLTVLG
notes: IgG4 backbone was used
koff [1]: 0.00016 s⁻¹ | Mean E max, Luciferase gene reporter assay [2]: 4%

Next, values leading:

koff [1]: 6.9e-05 s⁻¹ | Mean E max, Luciferase gene reporter assay [2]: 103% | Mean EC50, Luciferase gene reporter assay [2]: 0.134 nM
B2: 16H7 variant with light chain substitution H96Y (antibody, human IgG4 S228P, lambda, V domains shown)
VH: not shown
VL: SYVLTQPPSVSVAPGQTARITCGGNNIGSESVHWYQQKPGQAPVLVVYDDSDRPSGIPERFSGSNSGNTATLTISRVEAGDEADYYCQVWDGNSDYVVFGGGTKLTVLG
notes: IgG4 backbone was used

koff [1]: 5.8e-05 s⁻¹ | Mean E max, Luciferase gene reporter assay [2]: 107% | Mean EC50, Luciferase gene reporter assay [2]: 0.148 nM
B6: 16H7 variant with light chain substitution N93C (antibody, human IgG4 S228P, lambda, V domains shown)
VH: not shown
VL: SYVLTQPPSVSVAPGQTARITCGGNNIGSESVHWYQQKPGQAPVLVVYDDSDRPSGIPERFSGSNSGNTATLTISRVEAGDEADYYCQVWDGCSDHVVFGGGTKLTVLG
notes: IgG4 backbone was used

koff [1]: 0.00014 s⁻¹ | Mean E max, Luciferase gene reporter assay [2]: 102% | Mean EC50, Luciferase gene reporter assay [2]: 0.095 nM
B8: 16H7 variant with light chain substitution H96R (antibody, human IgG4 S228P, lambda, V domains shown)
VH: not shown
VL: SYVLTQPPSVSVAPGQTARITCGGNNIGSESVHWYQQKPGQAPVLVVYDDSDRPSGIPERFSGSNSGNTATLTISRVEAGDEADYYCQVWDGNSDRVVFGGGTKLTVLG
notes: IgG4 backbone was used

koff [1]: 1.8e-05 s⁻¹ | Mean E max, Luciferase gene reporter assay [2]: 110% | Mean EC50, Luciferase gene reporter assay [2]: 0.11 nM
B9: 16H7 variant with light chain substitution H96T (antibody, human IgG4 S228P, lambda, V domains shown)
VH: not shown
VL: SYVLTQPPSVSVAPGQTARITCGGNNIGSESVHWYQQKPGQAPVLVVYDDSDRPSGIPERFSGSNSGNTATLTISRVEAGDEADYYCQVWDGNSDTVVFGGGTKLTVLG
notes: IgG4 backbone was used

koff [1]: 5e-05 s⁻¹ | Mean E max, Luciferase gene reporter assay [2]: 104% | Mean EC50, Luciferase gene reporter assay [2]: 0.106 nM
B10: 16H7 variant with light chain substitution H96Q (antibody, human IgG4 S228P, lambda, V domains shown)
VH: not shown
VL: SYVLTQPPSVSVAPGQTARITCGGNNIGSESVHWYQQKPGQAPVLVVYDDSDRPSGIPERFSGSNSGNTATLTISRVEAGDEADYYCQVWDGNSDQVVFGGGTKLTVLG
notes: IgG4 backbone was used

koff [1]: 2.2e-06 s⁻¹ | Mean E max, Luciferase gene reporter assay [2]: 100% | Mean EC50, Luciferase gene reporter assay [2]: 0.165 nM
B13: 16H7 variant with light chain substitution N93F (antibody, human IgG4 S228P, lambda, V domains shown)
VH: not shown
VL: SYVLTQPPSVSVAPGQTARITCGGNNIGSESVHWYQQKPGQAPVLVVYDDSDRPSGIPERFSGSNSGNTATLTISRVEAGDEADYYCQVWDGFSDHVVFGGGTKLTVLG
notes: IgG4 backbone was used

koff [1]: 4.1e-05 s⁻¹ | Mean E max, Luciferase gene reporter assay [2]: 91% | Mean EC50, Luciferase gene reporter assay [2]: 0.13 nM
B16: 16H7 variant with light chain substitution H96V (antibody, human IgG4 S228P, lambda, V domains shown)
VH: not shown
VL: SYVLTQPPSVSVAPGQTARITCGGNNIGSESVHWYQQKPGQAPVLVVYDDSDRPSGIPERFSGSNSGNTATLTISRVEAGDEADYYCQVWDGNSDVVVFGGGTKLTVLG
notes: IgG4 backbone was used

koff [1]: 7.5e-06 s⁻¹ | Mean E max, Luciferase gene reporter assay [2]: 101% | Mean EC50, Luciferase gene reporter assay [2]: 0.108 nM
B18: 16H7 variant with light chain substitution N93A (antibody, human IgG4 S228P, lambda, V domains shown)
VH: not shown
VL: SYVLTQPPSVSVAPGQTARITCGGNNIGSESVHWYQQKPGQAPVLVVYDDSDRPSGIPERFSGSNSGNTATLTISRVEAGDEADYYCQVWDGASDHVVFGGGTKLTVLG
notes: IgG4 backbone was used

koff [1]: 3.8e-05 s⁻¹ | Mean E max, Luciferase gene reporter assay [2]: 108% | Mean EC50, Luciferase gene reporter assay [2]: 0.123 nM
B19: 16H7 variant with light chain substitution N93D (antibody, human IgG4 S228P, lambda, V domains shown)
VH: not shown
VL: SYVLTQPPSVSVAPGQTARITCGGNNIGSESVHWYQQKPGQAPVLVVYDDSDRPSGIPERFSGSNSGNTATLTISRVEAGDEADYYCQVWDGDSDHVVFGGGTKLTVLG
notes: IgG4 backbone was used

koff [1]: 0.00012 s⁻¹ | Mean E max, Luciferase gene reporter assay [2]: 103% | Mean EC50, Luciferase gene reporter assay [2]: 0.155 nM
B20: 16H7 variant with light chain substitution H96W (antibody, human IgG4 S228P, lambda, V domains shown)
VH: not shown
VL: SYVLTQPPSVSVAPGQTARITCGGNNIGSESVHWYQQKPGQAPVLVVYDDSDRPSGIPERFSGSNSGNTATLTISRVEAGDEADYYCQVWDGNSDWVVFGGGTKLTVLG
notes: IgG4 backbone was used

koff [1]: 3e-05 s⁻¹ | Mean E max, Luciferase gene reporter assay [2]: 102% | Mean EC50, Luciferase gene reporter assay [2]: 0.097 nM
B21: 16H7 variant with light chain substitution H96S (antibody, human IgG4 S228P, lambda, V domains shown)
VH: not shown
VL: SYVLTQPPSVSVAPGQTARITCGGNNIGSESVHWYQQKPGQAPVLVVYDDSDRPSGIPERFSGSNSGNTATLTISRVEAGDEADYYCQVWDGNSDSVVFGGGTKLTVLG
notes: IgG4 backbone was used

koff [1]: 5e-05 s⁻¹ | Mean E max, Luciferase gene reporter assay [2]: 100% | Mean EC50, Luciferase gene reporter assay [2]: 0.186 nM
B22: 16H7 variant with light chain substitution N93R (antibody, human IgG4 S228P, lambda, V domains shown)
VH: not shown
VL: SYVLTQPPSVSVAPGQTARITCGGNNIGSESVHWYQQKPGQAPVLVVYDDSDRPSGIPERFSGSNSGNTATLTISRVEAGDEADYYCQVWDGRSDHVVFGGGTKLTVLG
notes: IgG4 backbone was used
